Biological target: receptors for heregulin on rat Schwann cell lines (ESC and ASC)

How did the half-maximal response, growth of rat ESC and ASC Schwann cell lines turn out when “recombinant human heregulin-β1 177-244 fragment (from UniProt Q02297) (ligand)” was run?
The half-maximal response, growth of rat ESC and ASC Schwann cell lines was 1 to 2 nM.
